Source: US20200308309A1 (Novartis, published 2020)

T1: Recombinant marmoset IL-18 (marmoset, UniProt U3CWC9 37-190)
T1 construct: also called marIL-18
T1 sequence: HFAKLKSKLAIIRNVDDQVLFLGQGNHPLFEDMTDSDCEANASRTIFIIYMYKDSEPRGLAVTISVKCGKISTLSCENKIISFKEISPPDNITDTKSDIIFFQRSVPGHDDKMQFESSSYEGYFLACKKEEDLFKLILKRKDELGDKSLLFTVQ


What was measured:
[1] = target: T2, Recombinant marmoset IL-1β (marmoset, UniProt U3E018 117-268); experiment: cell-based or functional assay
Recombinant human IL-18 = target: T3, Recombinant human IL-18 (human, UniProt Q14116 37-193); experiment: SET simultaneous target binding, Assay B (both targets in serial dilutions in one mix), ECL read-out
T3 construct: A biotinylated form (BTP25828) was coated on the read-out plate in the SET assay; The titrated antigen in solution is huIL-18; also called huIL-18

[2] = target: T1, Recombinant marmoset IL-18; experiment: as above
Recombinant human IL-1β = target: T4, Recombinant human IL-1β (human, UniProt P01584 117-269); experiment: as above
T4 construct: also called huIL-1β

[3] = target: T2, Recombinant marmoset IL-1β; experiment: as above

Row | IL-6 prod. in dermal fibroblasts stimulated with recombinant marmoset IL-1β (18 pM), IC50, Exp. A (marmoset dermal fibroblasts by the column head) [1] [pM] | IL-6 prod. in dermal fibroblasts stimulated with recombinant marmoset IL-1β (18 pM), IC50, Exp. B (marmoset or human fibroblasts: column heads unclear) [1] [nM] | IL-6 prod. in dermal fibroblasts stimulated with recombinant marmoset IL-1β (18 pM), IC50, Exp. C (marmoset or human fibroblasts: column heads unclear) [1] [nM] | binding result (Recombinant human IL-18) | binding result [2] | binding result (Recombinant human IL-1β) | binding result [3] | Binder
1 | 95 | 0.138 | 0.114 | no binding | no binding |  |  | mAb2 (antibody, human IgG1, kappa, V domains shown, Human monospecific bivalent IgG1 with kappa light chain (Vkappa6); also called IL-1β antibody; anti IL-1β IgG1) VH: QVQLVESGGGVVQPGRSLRLSCAASGFTFSVYGMNWVRQAPGKGLEWVAIIWYDGDNQYYADSVKGRFTISRDNSKNTLYLQMNGLRAEDTAVYYCARDLRTGPFDYWGQGTLVTVSS VL: EIVLTQSPDFQSVTPKEKVTITCRASQSIGSSLHWYQQKPDQSPKLLIKYASQSFSGVPSRFSGSGSGTDFTLTINSLEAEDAAAYYCHQSSSLPFTFGPGTKVDIKR
2 |  |  |  |  |  | no binding | no binding | mAb1 (antibody, human IgG1, lambda, L234A L235A, V domains shown, Human monospecific bivalent IgG1 with lambda light chain (Vlambda1); also called IL-18 antibody; anti-IL18 IgG1) VH: EVQLVQSGAEVKKPGSSVKVSCKASGGTFKSYAISWVRQAPGQGLEWMGNIIPMTGQTYYAQKFQGRVTITADESTSTAYMELSSLRSEDTAVYYCARAAYHPLVFDNWGQGTLVTVSS VL: DIVLTQPPSVSGAPGQRVTISCSGSSSNIGNHYVNWYQQLPGTAPKLLIYRNNHRPSGVPDRFSGSKSGTSASLAITGLQSEDEADYYCQSWDYSGFSTVFGGGTKLTVLG
